# According to article PMC10533412 (2023):
# Substitutions are numbered along the chain they refer to.
# B1: BTN2A1 B30.2 (protein)
# chain: ELQVKEKLQEELRWRRTFLHAVDVVLDPDTAHPDLFLSEDRRSVRRCPFRHLGESVPDNPERFDSQPCVLGRESFASGKHYWEVEVENVIEWTVGVCRDSVERKGEVLLIPQNGFWTLEMHKGQYRAVSSPDRILPLKESLCRVGVFLDYEAGDVSFYNMRDRSHIYTCPRSAFSVPVRPFFRLGCEDSPIFICPALTGANGV
# modifications: DMAPP
# B2: BTN2A1 B30.2 (protein)
# chain: B1 chain
# modifications: IPP
# B3: BTN2A1 B30.2 (protein)
# chain: B1 chain
# modifications: HMBPP
# B4: BTN2A1 B30.2 (protein)
# chain: B1 chain with R45H
# B5: BTN2A1 B30.2 domain (domain or fragment)
# chain: EELRWRRTFLHAVDVVLDPDTAHPDLFLSEDRRSVRRCPFRHLGESVPDNPERFDSQPCVLGRESFASGKHYWEVEVENVIEWTVGVCRDSVERKGEVLLIPQNGFWTLEMHKGQYRAVSSPDRILPLKESLCRVGVFLDYEAGDVSFYNMRDRSHIYTCPRSAFSVPVRPFFRLGCEDSPIFICPALTGANGVTVPEEGLTLHRVGTHQSL
# modifications: limits from PDB 5ZXK/8JYE entity without the C-terminal LEHHHHHH; paper number minus 295 = entity position
# Tests used:
# BTN3A1 B30.2 = BTN3A1 B30.2 (Homo sapiens, UniProt O00481); test: ITC
# BTN3A1 B30.2, sequence (O00481 319-513): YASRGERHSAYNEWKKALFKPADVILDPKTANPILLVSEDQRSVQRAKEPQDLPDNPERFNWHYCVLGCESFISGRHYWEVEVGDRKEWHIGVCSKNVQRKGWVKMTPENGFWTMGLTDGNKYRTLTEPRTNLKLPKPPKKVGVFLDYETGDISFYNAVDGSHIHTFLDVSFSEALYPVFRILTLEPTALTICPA
# BTN3A3 B30.2 = BTN3A3 B30.2 (Homo sapiens, UniProt O00478); test: ITC
# BTN3A3 B30.2, sequence (O00478 319-521): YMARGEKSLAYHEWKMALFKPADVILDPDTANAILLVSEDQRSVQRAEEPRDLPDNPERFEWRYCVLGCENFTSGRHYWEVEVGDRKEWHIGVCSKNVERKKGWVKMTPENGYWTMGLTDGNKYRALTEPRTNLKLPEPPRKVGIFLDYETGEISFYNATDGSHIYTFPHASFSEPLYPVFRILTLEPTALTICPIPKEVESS
# BTN3A1 B30.2 domain = BTN3A1 B30.2 domain (human, UniProt O00481 328-513); test: ITC; with HMBPP
# BTN3A1 B30.2 domain, sequence (O00481 other isoform, or with tags, fused parts or gaps): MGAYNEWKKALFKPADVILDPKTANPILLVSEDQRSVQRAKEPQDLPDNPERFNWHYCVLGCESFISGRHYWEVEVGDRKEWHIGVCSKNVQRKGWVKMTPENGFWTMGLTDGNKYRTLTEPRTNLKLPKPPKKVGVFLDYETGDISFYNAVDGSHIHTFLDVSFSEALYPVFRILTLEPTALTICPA
Binder,Kd (BTN3A1 B30.2),further results
B1,12.3 µM,–
B2,155 µM,–
B3,0.611 µM,–
B4,–,Kd (BTN3A3 B30.2): 460 nM
B5,–,Kd (BTN3A1 B30.2 domain): 600 nM
